According to US20220073963A1, “COMPOSITIONS AND METHODS FOR DETECTING AND TREATING TYPE 1 DIABETES AND OTHER AUTOIMMUNE DISEASES” (THE JOHNS HOPKINS UNIVERSITY, priority 2018, published 2022):
No end group written: not given here.

Legend:
HLA-DQ8 monomers = experiment: Gentle SDS-PAGE assay of peptide binding to DQ8; parameters: species or system human; conditions: 100 μM peptide, 0.5 μM HLA-DQ8 monomers, 37° C., 72 h, pH 5.5
Description: Analysis of x-Id peptide binding to DQ8 using gentle SDS-PAGE assay. Gentle SDS-PAGE was used to assess formation of stable complexes between peptides and HLA-DQ8 molecules as previously described (Kim et al., 2013; Sadegh-Nasseri and Germain, 1991). Briefly, 0.5 μM of HLA-DQ8 monomers (provided by NIH tetramer core facility) were treated with thrombin to cleave and remove CLIP peptide. […] Reactions were neutralized, mixed with equal volumes of SDS-PAGE sample buffer containing 0.1% SDS (final concentration) and placed for 15 min at room temperature and run on 10% PAGE gels and silver-stained using a standard protocol.

CD4 T cells [1] = experiment: CFSE proliferation assay with immobilized peptide-loaded DQ8 complexes; assay type: cell-based, human; conditions: PBMCs from DQ8+ T1D subjects, 7 days
Description: CFSE proliferation assay. Freshly isolated PBMCs were washed twice with warm (37° C.) 1×PBS to remove serum that affect staining and the cells were resuspended in warm (37° C.) 1×PBS at a density of 1.5-2.0×10^6 cells/ml. Cells were labeled with 1 μM CFSE (eBioscience) for 1-2 min at 37° C. with continuous vortexing. The labeling reaction was quenched by adding chilled complete culture media. CFSE-labeled cells were washed in 1×PBS, resuspended in complete media, and plated into 24-well tissue culture plates (1.5-2.0×10^6 cells/well in 1 mL complete culture medium). […] Alternatively, in a separate experiment, to evaluate the mAb-specific proliferative response, purified mAbR and mAbN (described later in the method) concentration of 2.5 and 5 ug, immobilized into the wells of 24-well plates, and used to stimulate CFSE-labeled PBMCs. CFSE labelled cells without stimulation and with CD3-28 stimulation were taken as specific negative and positive controls respectively. After 7 days of incubation, cultures were stained as indicated in FIG. legends and proliferation assessed by determining frequency of CFSElow CD4 T cells.

CD4 T cells [2] = experiment: CFSE proliferation assay with soluble peptides; assay type: cell-based, human; conditions: soluble peptide, PBMCs from T1D and HC subjects, 7 days
Description: FIG. 14A-14B. […] Freshly isolated CFSE-labelled PBMCs from T1D and HC subjects were cultured in the presence or absence of indicated peptides for 7 days. Samples were stained, acquired and analyzed by FlowJo. CD4 T cells were gated and percentage of divided (CFSElow T cells) were determined. […] All peptides induced significant proliferation from diabetogenic subjects compared to HCs. n=4 per subject group, *p<0.05 by Two-way ANOVA with Sidak's multiple comparisons test. […] (FIG. 14B) Overlays show upregulation of CD69 by gated CFSElow T cells (red lines) versus […] non-proliferating (green) CD4 T cells from three subjects and three independent experiments. Numbers indicate percentages (Mean±SEM) of CFSElow CD4 T cells. CFSE proliferation assay. Freshly isolated PBMCs were washed twice with warm (37° C.) 1×PBS to remove serum that affect staining and the cells were resuspended in warm (37° C.) 1×PBS at a density of 1.5-2.0×10^6 cells/ml. Cells were labeled with 1 μM CFSE (eBioscience) for 1-2 min at 37° C. with continuous vortexing. The labeling reaction was quenched by adding chilled complete culture media. […] After 7 days of incubation, cultures were stained as indicated in FIG. legends and proliferation assessed by determining frequency of CFSElow CD4 T cells.

[3] = Wang et al., 2018; cited from earlier work
[4] = molecular target: CD4 T cells from T1D subjects (antigen receptors not identified); experiment: flow cytometry, tetramer staining of CD4 T cells; unstimulated cultures
[5] = molecular target: CD4 T cells from T1D subjects (antigen receptors not identified); experiment: flow cytometry, tetramer staining of CD4 T cells; x-Id-stimulated cultures, NO AB
[6] = molecular target: CD4 T cells from T1D subjects (antigen receptors not identified); experiment: flow cytometry, tetramer staining of CD4 T cells; mimotope-stimulated cultures, NO AB
[7] = molecular target: CD4 T cells from T1D subjects (antigen receptors not identified); experiment: flow cytometry, tetramer staining of CD4 T cells; x-Id-stimulated cultures, AB BLOCKADE (cells preincubated with x-mAbR)
[8] = molecular target: CD4 T cells from T1D subjects (antigen receptors not identified); experiment: flow cytometry, tetramer staining of CD4 T cells; mimotope-stimulated cultures, AB BLOCKADE (cells preincubated with x-mAbR)

SHLVEALYLVCGERG (listed as Homo sapiens) [native insulin]
formation of SDS-stable complexes with soluble DQ8 (HLA-DQ8 monomers): did not form detectable DQ8 complexes
stimulation of CD4 T cells (CFSE proliferation and CD69 upregulation) (CD4 T cells [1]): no significant responses

CARQEDTAMVYYFDYW (listed as Homo sapiens) [x-Id]
formation of SDS-stable complexes with soluble DQ8 (HLA-DQ8 monomers): forming SDS-stable complexes
proliferation of CD4 T cells (CFSElow) (CD4 T cells [2]): stimulates CD4 T cells from T1D, but not HC, subjects

TP-Id: truncated version of x-Id that lacked cysteine and tryptophan at the terminals (ARQEDTAMVYYFDY)
formation of SDS-stable complexes with soluble DQ8 (HLA-DQ8 monomers): forming SDS-stable complexes

SHLVEELYLVAGEEG (listed as Homo sapiens) [superagonist]
potency relative to native insulin B:9-23 [3]: about 1000 fold

CARQRFWSGPLFDYW [h-Id, CDR3 peptide of the IGVH04-b+ IgD+ clonotype from HC #1]
formation of SDS-stable complexes with soluble DQ8 (HLA-DQ8 monomers): did not form detectable DQ8 complexes
stimulation of CD4 T cells (CFSE proliferation and CD69 upregulation) (CD4 T cells [1]): no significant responses
proliferation of CD4 T cells (CFSElow) (CD4 T cells [2]): did not elicit proliferation of CD4 T cells from either T1D or HCs

CLIP-TET (peptide-MHC)
tetramer+ among CD4 T cells [4]: 0.07%
tetramer+ among CD4 T cells [5]: 0.1%
tetramer+ among CD4 T cells [6]: 0.09%
tetramer+ among CD4 T cells [7]: 0.08%
tetramer+ among CD4 T cells [8]: 0.08%

CARQEDTAMVYYFDYW (peptide-MHC, part only; not given: HLA-DQ8 alpha and beta chains, human, part only, also: loaded in biotinylated HLA-DQ8 monomers tetramerized with PE-streptavidin) [HLA-DQ8 tetramer loaded with x-Id peptide]
tetramer+ among CD4 T cells [4]: 0.56%
tetramer+ among CD4 T cells [5]: 1.03%
tetramer+ among CD4 T cells [6]: 1.07%
tetramer+ among CD4 T cells [7]: 0.35%
tetramer+ among CD4 T cells [8]: 0.36%
